Primed or numbered codes have the meaning given here. Where no end group is shown, it is not given here. [ ]: non-standard residue; d: D form. The star is where a group is joined. Hpra′ = its azide, alkyne or alkene has reacted where a group follows in round brackets; maleimide‑biotin = maleimide-biotin reagent joined to deprotected Cys; Man9″ = Man9 glycan attached to Hpg by CuAAC click with Man9-azide; Man9(3) = Man9-azide click-glycosylated onto Hpg; For = O=C*

Assay [1] deals with HIV broadly neutralizing antibody 2G12. As to the kind of experiment: radiolabelled glycopeptide with 2G12 in solution, protein G bead capture, scintillation counting.
The target is the same in assay [2]. As to the kind of experiment: radiolabelled glycopeptide with 2G12, protein G bead capture (end tied by Table 4).
Assay [3] has the same target. In words: radiolabelled glycopeptide with 2G12, protein G bead capture; high end tied to 10V8 by Table 4.
Assay [4] shares this target. As to the kind of experiment: radiolabelled glycopeptide with 2G12, protein G bead capture; low end tied to 10F6 by Table 4.
For assay [5] the target is unchanged. As to the kind of experiment: BLI curve fit, 4 nM 2G12.
The target is the same in assay [6]. In words: BLI curve fit, 8 nM 2G12.
For assay [7] the target is unchanged. In words: BLI curve fit, 16 nM 2G12.
The target is the same in assay [8]. As to the kind of experiment: BLI curve fit, 2 nM 2G12.
For assay [9] the target is unchanged. In words: BLI curve fit, 32 nM 2G12.
Assay [10] shares this target. In words: BLI curve fit, 1 nM 2G12.
The target is the same in assay [11]. In words: BLI curve fit, 0.5 nM 2G12.
Assay [12] has the same target. As to the kind of experiment: BLI (BLItz), glycopeptide on streptavidin sensor, 2G12 in solution, global 1:1 fit.

B1: glycopeptide 10F2-Δ11 (peptide)
peptide: For-[Hpra′](Man9(3))[Hpra′](Man9(3))AALK[Hpra′](Man9(3))QVTD[Hpra′](Man9(3))YALALFHRILGSGSLGHHHHHHRDYKDDDDK
One may read the Kd as the constant that tells how readily two partners part at equilibrium. Lower therefore signals a tighter complex. B1: in [1], the Fmax was 70% and the Kd worked out at 0.89 nM.

B2: glycopeptide 10F3 (Fixed library, round 10) (peptide)
peptide: For-[Hpra′](Man9(3))DTLHLKQIGG[Hpra′](Man9(3))PNCITQQDVR[Hpra′](Man9(3))TSIPYTYTWPGSGSLGHHHHHHRDYKDDDDK
In assay [1], B2 came in with an Fmax of 100% and a Kd of 3 nM.

B3: glycopeptide 10F2 (Fixed library, round 10), ribosomally translated (peptide)
peptide: For-[Hpra′](Man9″)HPYNTSRTSA[Hpra′](Man9″)[Hpra′](Man9″)AALK[Hpra′](Man9″)QVTD[Hpra′](Man9″)YALALFHRILGSGSLGHHHHHHRDYKDDDDK
The molecule B3 came in with a Kd in assay [2] of 0.5 to 0.6 nM. Moreover, in assay [1], the Fmax is 86% and the Kd is 0.6 nM.

B4: glycopeptide 10F12-C2,21S (peptide)
peptide: For-[Hpra′](Man9″)SYVTVIPA[Hpra′](Man9″)N[Hpra′](Man9″)PEARLGIVSH[Hpra′](Man9″)PGIRRGKALYGSGSLGHHHHHHRDYKDDDDK
In assay [1], B4 yielded an Fmax of 90% and a Kd of 186 nM.

B5: glycopeptide 10F9 (Fixed library, round 10) (peptide)
peptide: For-[Hpra′](Man9(3))RSTLNSLEYR[Hpra′](Man9(3))QYATEDPRIR[Hpra′](Man9(3))ASIPYTYWWPGSGSLGHHHHHHRDYKDDDDK
For B5, in assay [1], the Fmax came out at 86% and the Kd is 3.1 nM.

B6: glycopeptide 10F5 (Fixed library, round 10) (peptide)
peptide: For-[Hpra′](Man9(3))SPHLPVLLCK[Hpra′](Man9(3))VLNDGRRIVQ[Hpra′](Man9(3))SCELP[Hpra′](Man9(3))VRRSGSGSLGHHHHHHRDYKDDDDK
modifications: cysteine pairing not given here
In [1], B6 returned an Fmax of 93% and a Kd of 0.97 nM.

B7: glycopeptide 10F12 (Fixed library, round 10) (peptide)
peptide: For-[Hpra′](Man9″)CYVTVIPA[Hpra′](Man9″)N[Hpra′](Man9″)PEARLGIVCH[Hpra′](Man9″)PGIRRGKALYGSGSLGHHHHHHRDYKDDDDK
modifications: not fully specified (bridges); cysteine pairing not given here
As for B7, in [1], the Fmax amounted to 90% and the Kd is 0.77 nM.

B8: glycopeptide 10F5-Δ11 (peptide)
peptide: For-[Hpra′](Man9(3))VLNDGRRIVQ[Hpra′](Man9(3))SCELP[Hpra′](Man9(3))VRRSGSGSLGHHHHHHRDYKDDDDK
In [1], B8 yielded an Fmax of 17% and a Kd greater than 200 nM.

B9: glycopeptide 10F3 -C15S (peptide)
peptide: For-[Hpra′](Man9)DTLHLKQIGG[Hpra′](Man9)PNSITQQDVR[Hpra′](Man9)TSIPYTYTWPGSGSLGHHHHHHRDYKDDDDK
For B9, in assay [1], the Fmax is 63% and the Kd stood at 2.91 nM.

B10: glycopeptide 10V1-Δ9 (peptide)
peptide: For-[Hpra′](Man9(3))RSIPWYTYRWLPNGSGSLGHHHHHHRDYKDDDDK
For B10, in assay [1], the Fmax stood at 20% and the Kd is 7.5 nM.

B11: glycopeptide 10V8 (Variable library, round 10) (peptide)
peptide: For-[Hpra′](Man9(3))VLPTIISTNVNPFR[Hpra′](Man9(3))LSIPTYTYL[Hpra′](Man9(3))PITWGEIGSGSLGHHHHHHRDYKDDDDK
In assay [1], B11 came in with an Fmax of 94% and a Kd of 4.6 nM. Moreover, the Kd in assay [3] lay in the range of 0.5 to 5 nM.

B12: glycopeptide 10V9 (Variable library, round 10) (peptide)
peptide: For-[Hpra′](Man9(3))TSIPYTYLNRSLWTNYRVNSWS[Hpra′](Man9(3))SKNVNV[Hpra′](Man9(3))PLGSGSLGHHHHHHRDYKDDDDK
In assay [1], B12 returned an Fmax of 85% and a Kd of 3.9 nM.

B13: glycopeptide 10F6 (Fixed library, round 10) (peptide)
peptide: For-[Hpra′](Man9(3))L[Hpra′](Man9(3))FIRIYPTR[Hpra′](Man9(3))QYVYHAPLLT[Hpra′](Man9(3))VR[Hpra′](Man9(3))SPTGPLIGSGSLGHHHHHHRDYKDDDDK
As to B13, the dissociation constant Kd was 0.5 to 0.6 nM in assay [2], 0.5 to 5 nM in assay [4] and 0.54 nM in assay [1]. For the same molecule, the Fmax in assay [1] came to 87%.

B14: glycopeptide 10V1 (Variable library, round 10) (peptide)
peptide: For-[Hpra′](Man9(3))ATKTNCKREKT[Hpra′](Man9(3))DNHVTI[Hpra′](Man9(3))RSIPWYTYRWLPNGSGSLGHHHHHHRDYKDDDDK
In [1], B14 yielded an Fmax of 97% and a Kd of 1.9 nM.

B15: glycopeptide 10F3-Δ11 (peptide)
peptide: For-[Hpra′](Man9(3))PNCITQQDVR[Hpra′](Man9(3))TSIPYTYTWPGSGSLGHHHHHHRDYKDDDDK
B15: in assay [1], the Fmax is 32% and the Kd was determined as 25 nM.

B16: biotinylated synthetic 10F2 glycopeptide 3 (peptide)
peptide: For-[Hpra′](Man9″)HPYNTSRTSA[Hpra′](Man9″)[Hpra′](Man9″)AALK[Hpra′](Man9″)QVTD[Hpra′](Man9″)YALALFHRILGSGSGC(maleimide‑biotin)A
Broadly, the koff is the rate constant with which the complex falls apart. A high value points to fast dissociation. One may read the kon as a measure of how fast the partners come together. Lower therefore signals slow association. As for B16, the Req in assay [5] is 1.26; in assay [6], 1.37; in assay [7] it was 1.41; in assay [8], 0.987; in [9], 1.39; in assay [10], 0.682. Also, the Req in assay [11] was 0.481. Further, in assay [12], the Kd was 1.37 nM. For the same molecule, the koff in assay [12] turned out to be 0.000151 s⁻¹. Further, the kon in assay [12] came out at 111000 M⁻¹ s⁻¹.

B17: glycopeptide 10F8 (Fixed library, round 10) (peptide)
peptide: For-[Hpra′](Man9(3))LLK[Hpra′](Man9(3))VDQSRL[Hpra′](Man9(3))PVPGIGVTLH[Hpra′](Man9(3))RSIPYSYLPIGSGSLGHHHHHHRDYKDDDDK
In the case of B17, in assay [1], the Fmax turned out to be 97% and the Kd amounted to 2.6 nM.

B18: glycopeptide 10F5-C10,25S (peptide)
peptide: For-[Hpra′](Man9(3))SPHLPVLLSK[Hpra′](Man9(3))VLNDGRRIVQ[Hpra′](Man9(3))SSELP[Hpra′](Man9(3))VRRSGSGSLGHHHHHHRDYKDDDDK
Regarding B18, in assay [1], the Fmax was found to be 94% and the dissociation constant (Kd) is 2.5 nM.

Source of the values: patent US20160304858A1.
